Measured values: US20100260668A1 (published 2010)
“And” between values parts separate entries of the source, which are not always exact repeats. Equal entries are not always repeated.

Assays:
[1] = target: T1, DLL4 (human, UniProt Q9NR61 27-685); experiment: flow cytometry on cells carrying the target, 2 ug/mL; C-terminal VD
T1 construct: whole, on cells; also called human DLL4

[2] = target: T2, ErbB3 on A431 cells (human, UniProt P21860 20-1342); experiment: cell-based or functional assay
[3] = target: T3, EGFR on A431 cells (human, UniProt P00533 25-1210); experiment: cell-based or functional assay
[4] = target: T2, ErbB3 on A431 cells; experiment: cell-based or functional assay; remark: listed apart in the source
[5] = target: T3, EGFR on A431 cells; experiment: cell-based or functional assay; remark: listed apart in the source
[6] = target: T1, DLL4; experiment: flow cytometry on 293G-human DLL4 cells; DLL4 VD N-terminal
[7] = target: T4, IGF1R ECD (UniProt P08069 31-935, limits assumed); experiment: Direct Bind ELISA, antigen on plate
T4 construct: extracellular domain; Bought reagent

[8] = target: T5, VEGF (VEGF 1-165 aa, R&D Systems 293-VE-010) (UniProt P15692 27-191); experiment: Direct bind ELISA, VEGF coated on plate; VEGF domain N-term., HC long/LC long
T5 construct: bought reagent; also called vascular endothelial growth factor
T5 sequence (P15692 other isoform, or with tags, fused parts or gaps limits assumed): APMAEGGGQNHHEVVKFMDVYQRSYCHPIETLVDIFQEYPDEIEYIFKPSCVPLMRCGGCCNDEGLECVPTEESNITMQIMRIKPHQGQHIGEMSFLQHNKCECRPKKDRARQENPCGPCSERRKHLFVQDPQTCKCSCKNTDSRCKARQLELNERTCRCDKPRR

[9] = target: T6, RON (UniProt Q04912 25-1400, limits assumed); experiment: flow cytometry on cells carrying the target, 2 ug/mL; C-terminal VD
T6 construct: whole, on cells; also called macrophage stimulating protein receptor tyrosine kinase; MSP receptor

[10] = target: T7, HGF (HGF-His tag) (UniProt P14210 32-728); experiment: Direct Bind ELISA, antigen on plate
T7 construct: Bought reagent
T7 sequence (P14210 32-728 limits assumed): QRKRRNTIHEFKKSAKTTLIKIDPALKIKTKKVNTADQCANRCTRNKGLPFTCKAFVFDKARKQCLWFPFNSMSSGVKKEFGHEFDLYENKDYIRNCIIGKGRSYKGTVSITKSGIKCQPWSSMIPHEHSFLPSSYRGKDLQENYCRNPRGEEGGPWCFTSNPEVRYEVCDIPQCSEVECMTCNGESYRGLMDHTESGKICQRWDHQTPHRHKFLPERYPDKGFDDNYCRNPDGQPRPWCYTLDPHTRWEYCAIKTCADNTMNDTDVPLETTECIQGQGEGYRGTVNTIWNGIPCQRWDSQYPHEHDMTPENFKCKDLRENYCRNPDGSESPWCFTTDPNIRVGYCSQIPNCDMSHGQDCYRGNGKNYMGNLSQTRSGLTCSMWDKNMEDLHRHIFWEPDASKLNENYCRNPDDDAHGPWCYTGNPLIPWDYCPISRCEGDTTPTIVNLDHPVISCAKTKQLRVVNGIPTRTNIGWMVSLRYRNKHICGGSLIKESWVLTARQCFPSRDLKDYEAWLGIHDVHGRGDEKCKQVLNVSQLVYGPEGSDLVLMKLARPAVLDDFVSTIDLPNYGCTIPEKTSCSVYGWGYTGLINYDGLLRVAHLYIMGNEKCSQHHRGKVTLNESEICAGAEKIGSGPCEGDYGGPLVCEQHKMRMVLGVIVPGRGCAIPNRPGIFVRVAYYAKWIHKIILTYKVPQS

B1: DVD043 (bispecific antibody, human IgG1, kappa)
heavy: not shown
light: DIQMTQSPSSLSASVGDRVTITCSASQDISNYLNWYQQKPGKAPKVLIYFTSSLHSGVPSRFSGSGSGTDFTLTISSLQPEDFATYYCQQYSTVPWTFGQGTKVEIKRTVAAPDIQMTQSPSSLSASVGDRVTITCRASQDVSTAVAWYQQKPGKAPKLLIYSASFLYSGVPSRFSGSGSGTDFTLTISSLQPEDFATTYYCQQSYTGTVTFGQGTKVEIKRTVAAPSVFIFPPSDEQLKSGTASVVCLLNNFYPREAKVQWKVDNALQSGNSQESVTEQDSKDSTYSLSSTLTLSKADYEKHKVYACEVTHQGLSSPVTKSFNRGEC
notes: DVD-Ig; also called VEGF and DLL4 DVD-Ig
[1]
  FACS Geometric Mean C-terminal: 68.4

B2: AB008 (anti-CD-22 antibody, used as control) (antibody, human IgG1, kappa, V domains shown)
VH: QVQLVQSGAEVKKPGSSVKVSCKASGYTFTSYWLHWVRQAPGQGLEWIGYINPRNDYTEYNQNFKDKATITADESTNTAYMELSSLRSEDTAFYFCARRDITTFYWGQGTTVTVSS
VL: DIQLTQSPSSLSASVGDRVTMSCKSSQSVLYSANHKNYLAWYQQKPGKAPKLLIYWASTRESGVPSRFSGSGSGTDFTFTISSLQPEDIATYYCHQYLSSWTFGGGTKLEIKR
[2]
  Inhibition Of A431 Proliferation (% Inhibition At 21.6 nM Ab/DVD): 6%
[3]
  Inhibition Of A431 Proliferation (% Inhibition At 21.6 nM Ab/DVD): 6%
[4]
  Inhibition Of ErbB3 Phosphorylation (% Inhibition At 60 nM Ab/DVD): 0%
[5]
  Inhibition Of EGFR Phosphorylation (% Inhibition At 60 nM Ab/DVD): 4%

B3: DVD485 (bispecific antibody, human IgG1, kappa)
heavy: not shown
light: DIQMTQSPSSLSASVGDRVTITCRASQDVSTAVAWYQQKPGKAPKLLIYSASFLYSGVPSRFSGSGSGTDFTLTISSLQPEDFATTYYCQQSYTGTVTFGQGTKVEIKRTVAAPSVFIFPPDIQMTQSPSSLSASVGDRVTITCRASQVIRRSLAWYQQKPGKAPKLLIYAASNLASGVPSRFSGSGSGTDFTLTISSLQPEDFATYYCQQSNTSPLTFGQGTKVEIKRTVAAPSVFIFPPSDEQLKSGTASVVCLLNNFYPREAKVQWKVDNALQSGNSQESVTEQDSKDSTYSLSSTLTLSKADYEKHKVYACEVTHQGLSSPVTKSFNRGEC
notes: DVD-Ig; outer AB015 (DLL4), inner AB071 (VEGF); also called DLL4 and VEGF DVD-Ig, HC linker short, LC linker long
[6]
  EC50: 0.89 nM

B4: AB011 (anti-IGF1R (seq. 1) parent antibody) (antibody, IgG1, V domains shown)
VH: EVQLLESGGGLVQPGGSLRLSCTASGFTFSSYAMNWVRQAPGKGLEWVSAISGSGGTTFYADSVKGRFTISRDNSRTTLYLQMNSLRAEDTAVYYCAKDLGWSDSYYYYYGMDVWGQGTTVTVSS
VL: DIQMTQFPSSLSASVGDRVTITCRASQGIRNDLGWYQQKPGKAPKRLIYAASRLHRGVPSRFSGSGSGTEFTLTISSLQPEDFATYYCLQHNSYPCSFGQGTKLEIKR
notes: HC vector V1 (wild-type hIgG1 constant), LC vector V2 (kappa constant); also called AB011VH; AB011VL
[7]
  EC50: 0.28 nM

B5: DVD496 (bispecific antibody, human IgG1, kappa)
heavy: not shown
light: DIQMTQSPSSLSASVGDRVTITCRASQDVSTAVAWYQQKPGKAPKLLIYSASFLYSGVPSRFSGSGSGTDFTLTISSLQPEDFATYYCQQSYTTPPTFGQGTKVEIKRTVAAPSVFIFPPDIQMTQSSSYLSVSLGGRVTITCKASDHINNWLAWYQQKPGNAPRLLISGATSLETGVPSRFSGSGSGKDYTLSITSLQTEDVATYYCQQYWSIPLTFGAGTKLELKRTVAAPSVFIFPPSDEQLKSGTASVVCLLNNFYPREAKVQWKVDNALQSGNSQESVTEQDSKDSTYSLSSTLTLSKADYEKHKVYACEVTHQGLSSPVTKSFNRGEC
notes: DVD-Ig; N-term; AB070 (VEGF), C-term; AB072 (DLL4); HC linker long, LC linker long; also called DVD-Ig DVD496; DVD496H/DVD496L
[8]
  EC50: 108 nM

B6: DVD034 (bispecific antibody, human IgG1, kappa)
heavy: not shown
light: DIQMTQSPSSVSASVGDRVTITCRASQGISSWLAWYQQKPGKAPNLLIYEASSLQSGVPSRFGGSGSGTDFTLTISSLQPEDFATYYCQQANGFPWTFGQGTKVEIKRTVAAPDVVMTQSPLSLPVTPGEPASISCRSSQSLLHSNGFNYVDWYLQKPGQSPHLLIYFGSYRASGVPDRFSGSGSGTDFTLKISRVEAEDVGVYYCMQALQTPPWTFGQGTKVEIRRTVAAPSVFIFPPSDEQLKSGTASVVCLLNNFYPREAKVQWKVDNALQSGNSQESVTEQDSKDSTYSLSSTLTLSKADYEKHKVYACEVTHQGLSSPVTKSFNRGEC
notes: DVD-Ig; outer AB012 (HGF), inner AB005 (RON); also called HGF and RON DVD-Ig
[9]
  FACS Geometric Mean C-terminal: 0.39

B7: DVD258 (bispecific antibody, human IgG1, kappa)
heavy: not shown
light: DIVLTQSPDSLAVSLGERVTMNCKSSQSLLNSGMRKSFLAWYQQKPGQSPKLLIYWASTRESGVPDRFTGSGSGTDFTLTISSVQAEDVAVYYCKQSYHLFTFGSGTKLEIKRTVAAPDIQMTQSPSSLSASVGDRVTITCRASQDVSTAVAWYQQKPGKAPKLLIYSASFLYSGVPSRFSGSGSGTDFTLTISSLQPEDFATTYYCQQSYTGTVTFGQGTKVEIKRTVAAPSVFIFPPSDEQLKSGTASVVCLLNNFYPREAKVQWKVDNALQSGNSQESVTEQDSKDSTYSLSSTLTLSKADYEKHKVYACEVTHQGLSSPVTKSFNRGEC
notes: DVD-Ig; outer AB047 (PlGF), inner AB015 (DLL4); also called PlGF and DLL4 DVD-Ig
[1]
  FACS Geometric Mean C-terminal: 5.57

B8: AB012 (anti-HGF (seq. 1) parent antibody) (antibody, IgG1, V domains shown)
VH: QVQLVESGGGLVKPGGSLRLSCAASGFTFSDYYMSWIRQAPGKGLEWVSYISSSGSTIYYADSVKGRFTISRDNAKNSLYLQMNSLRAEDTAVYYCARDEYNSGWYVLFDYWGQGTLVTVSS
VL: DIQMTQSPSSVSASVGDRVTITCRASQGISSWLAWYQQKPGKAPNLLIYEASSLQSGVPSRFGGSGSGTDFTLTISSLQPEDFATYYCQQANGFPWTFGQGTKVEIKR
notes: HC vector V1 (wild-type hIgG1 constant), LC vector V2 (kappa constant); also called AB012VH; AB012VL
[10]
  EC50: 0.22 nM and 0.19 nM
